Data on three proteins can be found in patent US20030163841A1 (YALE UNIVERSITY, published 2003).

Data set [1] concerns the molecule itself. In words: yeast two-hybrid, LacZ reporter. The text has this:
(C) Delimitation of Cop1 self-association domain utilizing the yeast two-hybrid system. For baits (Bait), Cop1 domain fragments were fused with the LexA DNA binding domain (LexA). For preys (Prey), the COP1 domain fragments were fused with the synthetic transcription activation domain (AD). Numbers and names at the left indicate a pairwise combination of bait and prey constructs in each row. The graph at the right indicates the relative LacZ reporter activity in yeast cells corresponding to combinations of bait and prey constructs presented in each row. For each pairwise combination, at least 8 individual transformants were used to measure the LacZ activity. Error bars represent standard deviation. Combination 1 (LexA: N282) and 2 (N282:AD) serve as negative controls.
pKS-RING and pKS-Coil are digested with EcoRI and XhoI, and rest of the COP1 domain cassettes in the pKSm vectors were digested with EcoRI. Fragments were then ligated into pEG202 or pJG4-5 to generate COP1 domains fused to the LexA DNA binding protein or the synthetic activation domain, respectively (Golemis et al., 1995). Generation of pEG-N282, pJG-N282, pJG-COP1, and pJG-ΔRING was described elsewhere (McNellis et al., 1996; Ang et al., 1998). To generate pJG-GUS-ΔRΔC, pRTL-GUS-ΔRΔC was cleaved with NcoI and XbaI and then ligated into NcoI/XbaI digested pKS-COP1. […]

Data set [2] deals with the molecule itself. In words: gel filtration (Superdex-200) of seedling extracts, immunoblot of fractions. The protocol:
For gel filtration chromatography, 8-day-old light- or dark grown seedlings were homogenized with 2× gel filtration buffer containing 50 mM Tris-HCl (pH 7.5), 440 mM NaCl, 2 mM MgCl₂, 2 μM ZnSO₄, 0.5 mM PMSF and centrifuged for 5 min at 4° C. Total soluble protein was fractionated through a 25 ml Superdex-200 FPLC column (Pharmacia) with 1× gel filtration buffer at a flow rate of […]. All procedures were carried out at 4° C. and, for dark samples, under dim green safe light. Consecutive fractions of 0.5 ml each were collected after the void volume (7.5 ml), concentrated, and subjected to 10% SDS-PAGE followed by a protein immunoblot analysis. The molecular weight standards for size estimation of the native COP1 protein were as follows: blue dextran (void); thyroglobulin (669 kDa); ferritin (440 kDa); catalase (232 kDa); aldolase (158 kDa); BSA (67 kDa); ovalbumin (43 kDa); and ribonuclease A (13.7 kDa) (Sigma).
To confirm the presence of COP1 dimers in vivo, a gel-filtration analysis was performed using protein extracts from light- or dark-grown Arabidopsis wild-type seedlings. […] However, the COP1 peak was very broad and contained a broad shoulder toward the larger molecular size fractions (FIG. 1B). Therefore it is possible that a portion of COP1 may present as homo-oligomers or in heterogeneous associations with other molecules in vivo. […]

Data set [3] deals with the molecule itself. In words: chemical cross-linking (DSub or EGS) of in vitro translated protein, SDS-PAGE, fluorography. The protocol: Protein immunoblot analysis was performed exactly as described previously (McNellis et al., 1994a). pAR-COP1 , a FLAG-tagged COP1 that has an additional peptide […] at the N-terminus (Matsui et al., 1995), was in vitro transcribed and translated using TNT coupled reticulocyte lysate system (Promega) and radiolabelled with [³⁵S]methionine (Amersham). For chemical cross-linking, 2 μl of translation mix (with radiolabelled proteins) was diluted to 18 μl with a reaction buffer (100 mM potassium phosphate [pH 7.7]; 100 mM NaCl; 0.1 mM ZnSO₄; 10% glycerol; 0.1% NonidetP-40; 4 mM DTT) and cross-linked with 2 μl of freshly diluted Dsub or EGS in dimethyl sulfoxide. For a negative control, 2 μl of dimethyl sulfoxode was added to the reaction. After 20 min incubation at room temperature, the reaction was quenched by addition of 2 μl of 1 M glycine (for Dsub) or 200 mM lysine (for EGS) and 22 μl of 2× Laemmli SDS-PAGE buffer. Samples were boiled for 5 min, separated by 6% SDS-PAGE, and fluorographed after treatment with Amplify (Amersham).
To better understand the COP1 self-association, we performed a chemical cross-linking analysis of in-vitro translated COP1 protein in solution. A FLAG-COP1 epitope tagged protein was in-vitro translated and then cross-linked with either dimethylsuberimidate (DSub) or ethylene glycobis (succinimidylsuccinate) (EGS). […]

B1: Coil domain of COP1 (pKS-Coil cassette) (other)
chain: MDKLLKKTSARHVSKTASPLDQFREALQRGCDVSIKEVDNLLTLLAERKRKMEQEEAERNMQILLDFLHCLRKQKVDELNEVQTDLQYIKEDINAVERHRIDLYRARD
notes: The cassette used in yeast starts at aa104 (L104M); Fused to LexA or AD in yeast; also called coiled-coil domain
As for B1, the binding result in data set [1] is listed as “binds”.

B2: endogenous Arabidopsis COP1 protein (extracts of wild-type seedlings) (other, UniProt P43254 1-675, looked up)
chain: MEEISTDPVVPAVKPDPRTSSVGEGANRHENDDGGSGGSEIGAPDLDKDLLCPICMQIIKDAFLTACGHSFCYMCIITHLRNKSDCPCCSQHLTNNQLYPNFLLDKLLKKTSARHVSKTASPLDQFREALQRGCDVSIKEVDNLLTLLAERKRKMEQEEAERNMQILLDFLHCLRKQKVDELNEVQTDLQYIKEDINAVERHRIDLYRARDRYSVKLRMLGDDPSTRNAWPHEKNQIGFNSNSLSIRGGNFVGNYQNKKVEGKAQGSSHGLPKKDALSGSDSQSLNQSTVSMARKKRIHAQFNDLQECYLQKRRQLADQPNSKQENDKSVVRREGYSNGLADFQSVLTTFTRYSRLRVIAEIRHGDIFHSANIVSSIEFDRDDELFATAGVSRCIKVFDFSSVVNEPADMQCPIVEMSTRSKLSCLSWNKHEKNHIASSDYEGIVTVWDVTTRQSLMEYEEHEKRAWSVDFSRTEPSMLVSGSDDCKVKVWCTRQEASVINIDMKANICCVKYNPGSSNYIAVGSADHHIHYYDLRNISQPLHVFSGHKKAVSYVKFLSNNELASASTDSTLRLWDVKDNLPVRTFRGHTNEKNFVGLTVNSEYLACGSETNEVYVYHKEITRPVTSHRFGSPDMDDAEEEAGSYFISAVCWKSDSPTMLTANSQGTIKVLVLAA
notes: range 1-675; Gel filtration peak at about 160 kDa is read as a dimer; The peak is broad, so oligomers, other partners and some monomer are not excluded; also called native COP1 protein
As to B2, the binding result in data set [2] is listed as “binds”.

B3: FLAG-COP1 epitope tagged protein (pAR-COP1), in vitro translated and [35S]methionine labelled (other, Arabidopsis)
chain: DDADTKDDDDKMEEISTDPVVPAVKPDPRTSSVGEGANRHENDDGGSGGSEIGAPDLDKDLLCPICMQIIKDAFLTACGHSFCYMCIITHLRNKSDCPCCSQHLTNNQLYPNFLLDKLLKKTSARHVSKTASPLDQFREALQRGCDVSIKEVDNLLTLLAERKRKMEQEEAERNMQILLDFLHCLRKQKVDELNEVQTDLQYIKEDINAVERHRIDLYRARDRYSVKLRMLGDDPSTRNAWPHEKNQIGFNSNSLSIRGGNFVGNYQNKKVEGKAQGSSHGLPKKDALSGSDSQSLNQSTVSMARKKRIHAQFNDLQECYLQKRRQLADQPNSKQENDKSVVRREGYSNGLADFQSVLTTFTRYSRLRVIAEIRHGDIFHSANIVSSIEFDRDDELFATAGVSRCIKVFDFSSVVNEPADMQCPIVEMSTRSKLSCLSWNKHEKNHIASSDYEGIVTVWDVTTRQSLMEYEEHEKRAWSVDFSRTEPSMLVSGSDDCKVKVWCTRQEASVINIDMKANICCVKYNPGSSNYIAVGSADHHIHYYDLRNISQPLHVFSGHKKAVSYVKFLSNNELASASTDSTLRLWDVKDNLPVRTFRGHTNEKNFVGLTVNSEYLACGSETNEVYVYHKEITRPVTSHRFGSPDMDDAEEEAGSYFISAVCWKSDSPTMLTANSQGTIKVLVLAA
notes: range 1-675; Monomer 78 kDa, cross-linked product about 160 kDa; A second, lower band may start at an internal methionine of COP1; also called FLAG-tagged COP1
On to B3, for which the binding result in data set [3] is “binds”.
